Reference: article PMC7583008

Legend:
[1] = molecular target: GH2 β-mannosidase from Cellulomonas fimi (EC 3.2.1.25) (Cellulomonas fimi) (UniProt Q9XCV4)
[2] = molecular target: GH2 β-mannosidase from Cellulomonas fimi (EC 3.2.1.25) (Cellulomonas fimi) (UniProt Q9XCV4); remark: listed apart in the source
[3] = molecular target: GH2 β-mannosidase from Cellulomonas fimi (EC 3.2.1.25) (Cellulomonas fimi) (UniProt Q9XCV4); remark: listed apart in the source
[4] = molecular target: GH2 β-mannosidase from Cellulomonas fimi (EC 3.2.1.25) (Cellulomonas fimi) (UniProt Q9XCV4); assay: enzyme inhibition titration (residual activity against inhibitor/enzyme ratio); fixed enzyme (11.8 μM) preincubated with increasing γC for 10 min at room temperature; 100 mM sodium maleate pH 6.0, BSA 1 mg/mL, 1 mM Zn2+, pNP-β-D-mannopyranoside 0.8 mM, 35 °C, 15 min; Ki calculated from the IC50 by the method of Cer et al., assuming competitive inhibition (Km 300 μM); stoichiometry from the x-intercept of the tangent line

Sequence of UniProt Q9XCV4 (Q9XCV4 entry or part of it): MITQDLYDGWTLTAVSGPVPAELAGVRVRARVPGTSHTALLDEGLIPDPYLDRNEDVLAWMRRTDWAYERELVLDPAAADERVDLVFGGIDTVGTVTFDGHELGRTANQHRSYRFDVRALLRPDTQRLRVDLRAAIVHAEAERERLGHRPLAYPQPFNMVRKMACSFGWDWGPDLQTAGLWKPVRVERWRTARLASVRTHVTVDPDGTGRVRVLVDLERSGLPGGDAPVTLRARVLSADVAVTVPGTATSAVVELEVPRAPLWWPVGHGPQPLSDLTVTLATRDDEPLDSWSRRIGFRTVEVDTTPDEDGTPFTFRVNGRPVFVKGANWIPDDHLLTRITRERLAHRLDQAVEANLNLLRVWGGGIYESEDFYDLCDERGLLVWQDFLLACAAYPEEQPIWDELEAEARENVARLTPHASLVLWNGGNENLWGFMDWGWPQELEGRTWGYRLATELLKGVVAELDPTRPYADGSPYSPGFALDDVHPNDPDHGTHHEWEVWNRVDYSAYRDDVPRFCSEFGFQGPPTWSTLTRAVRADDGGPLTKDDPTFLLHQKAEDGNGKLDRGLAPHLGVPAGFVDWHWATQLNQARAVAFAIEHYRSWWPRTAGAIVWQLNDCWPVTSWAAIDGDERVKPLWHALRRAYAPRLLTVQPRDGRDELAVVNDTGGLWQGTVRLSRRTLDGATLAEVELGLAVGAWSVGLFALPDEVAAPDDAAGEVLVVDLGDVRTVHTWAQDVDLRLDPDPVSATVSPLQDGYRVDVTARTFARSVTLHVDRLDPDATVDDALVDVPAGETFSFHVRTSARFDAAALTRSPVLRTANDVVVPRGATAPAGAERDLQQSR

Lupinus albus γ-conglutin (natural protein)
residual activity of GH2 β-mannosidase with γC at a molar ratio of 1:1 (pNP-β-D-mannopyranoside as substrate, no metal added) [1]: 73% | residual activity of GH2 β-mannosidase with γC at a molar ratio of 1:1 in the presence of 1 mM Zn2+ [2]: 55% | IC50 of the inhibition of GH2 β-mannosidase activity by γC, as a molar ratio (11.8 μM enzyme, 1 mM Zn2+, pH 6.0) (molar ratio [γC]/[GH2]) [3]: 0.99 | Ki [4]: 1550 nM | stoichiometry N (enzyme/inhibitor) [4]: 1.14
